Source: US20080269139A1 (GENENCOR INTERNATIONAL, published 2008)
Substitutions are numbered along the chain they refer to.

B1: 2H9 peptide-BLA fusion (other)
chain: CHYLLTNYCTPVSEKQLAEVVANTITPLMKAQSVPGMAVAVIYQGKPHYYTFGKADIAANKPVTPQTLFELGSISKTFTGVLGGDAIARGEISLDDAVTRYWPQLTGKQWQGIRMLDLATYTAGGLPLQVPDEVTDNASLLRFYQNWQPQWKPGTTRLYANASIGLFGALAVKPSGMPYEQAMTTRVLKPLKLDHTWINVPKAEEAHYAWGYRDGKAVRVSPGMLDAQAYGVKTNVQDMANWVMANMAPENVADASLKQGIALAQSRYWRIGSMYQGLGWEMLNWPVEANTVVEGSDSKVALAPLPVAEVNPPAPPVKASWVHKTGSTGGFGSYVAFIPEKQIGIVMLANTSYPNPARVEAAYHILEALQHHHHHH
B2: 1A6 peptide-BLA fusion (other)
chain: B1 chain with H2E, Y3E, L4I, L5W, N7M, Y8L
B3: 2H10 peptide-BLA fusion (other)
chain: B1 chain with H2R, Y3I, L4H, T6A, N7H, Y8K
B4: 2E2 peptide-BLA fusion (other)
chain: B1 chain with H2L, Y3T, L4V, T6W, N7T, Y8T

Target: T1, FGF-5 (UniProt P12034 23-268, limits assumed, biotinylated with EZ-Link Sulfo-NHS-Biotin in the BioVeris assay only)
T1 construct: also called bFGF5 (biotinylated, BioVeris assay); FGF-5, carrier-free (R&D Systems #237-F5/CF)
T1 sequence (looked up): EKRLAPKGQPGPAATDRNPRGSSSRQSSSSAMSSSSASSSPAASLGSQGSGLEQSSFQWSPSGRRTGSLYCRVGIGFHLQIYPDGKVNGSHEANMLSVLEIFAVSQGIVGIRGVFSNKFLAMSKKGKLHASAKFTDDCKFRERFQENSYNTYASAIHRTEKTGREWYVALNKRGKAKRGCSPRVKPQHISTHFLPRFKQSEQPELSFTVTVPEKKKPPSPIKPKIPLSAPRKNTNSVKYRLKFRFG
Assay: BLA binding assay, purified peptide-BLA fusion on FGF-5-coated plate, nitrocefin

Binder	Percent Bound at 0.1 nM
B1	5%
B2	8%
B3	8%
B4	7%
